The values below come from patent US20240254229A1 (Molecular Partners, published 2024).

The target of assay [1] is T1, extracellular domain of human CD70 (SEQ ID NO: 89), hCD70-Fc-trimer, ACRO Biosystems (human, UniProt P32970 52-193, chemically biotinylated where the biotinylated form was used).
T1 construct: also called human CD70-Fc-trimer; Bio.CD70
T1 sequence: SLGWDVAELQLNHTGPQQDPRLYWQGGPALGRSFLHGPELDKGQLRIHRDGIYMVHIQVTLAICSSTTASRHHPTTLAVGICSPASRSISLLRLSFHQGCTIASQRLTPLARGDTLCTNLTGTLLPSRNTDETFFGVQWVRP
Put plainly: crude extract HTRF, 2 nM biotinylated hCD70. The text has this:
Individual selected ankyrin repeat proteins specifically binding to hCD70 in solution were identified by a Homogeneous Time Resolved Fluorescence (HTRF) assay using crude extracts of ankyrin repeat protein-expressing Escherichia coli cells using standard protocols. Ankyrin repeat protein clones selected by ribosome display were cloned into derivatives of the pQE30 (Qiagen) expression vector (pMPDV25), transformed into E. coli XL1-Blue (Stratagene), plated on LB-agar (containing 1% glucose and 50 μg/ml ampicillin) and then incubated overnight at 37° C. Single colonies were picked into a 96 well plate (each clone in a single well) containing 160 μl growth medium (TB containing 1% glucose and 50 μg/ml ampicillin) and incubated overnight at 37° C., shaking at 800 rpm. […]
The extract of each lysed clone was applied as a 1:2000 dilution (final concentration) in PBSTB (PBS supplemented with 0.1% Tween 20® and 0.2% (w/v) BSA, pH 7.4) together with 2 nM (final concentration) biotinylated hCD70, 1:400 (final concentration) of anti-strep-Tb HTRF antibody-FRET donor conjugate (Cisbio) and 1:400 (final concentration) of anti-6His-D2 antibody FRET acceptor conjugate (Cisbio) to a well of 384 well plate and incubated for 60 minutes at RT. The HTRF was read-out on a Tecan M1000 using a 340 nm excitation wavelength and a 665±10 nm emission filter. […]
A general note: In TR-FRET formats the signal depends on donor and acceptor labels being close together.

In assay [2] the target is T2, biotinylated extracellular domains of human CD123 (uniprot ID 26951), Fc format (human, UniProt P26951 19-305, biotinylated).
T2 construct: extracellular domain
T2 sequence (looked up): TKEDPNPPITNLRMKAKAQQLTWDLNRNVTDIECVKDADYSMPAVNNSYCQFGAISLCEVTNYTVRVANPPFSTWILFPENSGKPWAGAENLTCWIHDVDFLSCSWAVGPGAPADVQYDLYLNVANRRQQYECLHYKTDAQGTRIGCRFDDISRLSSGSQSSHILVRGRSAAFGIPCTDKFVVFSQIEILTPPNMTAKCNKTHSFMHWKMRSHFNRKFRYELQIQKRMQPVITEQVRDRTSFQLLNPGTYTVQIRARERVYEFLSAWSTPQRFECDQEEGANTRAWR
Description: crude extract HTRF, 6 nM biotinylated CD123. The text has this: Individual selected ankyrin repeat proteins specifically binding to hCD123 in solution were identified by a Homogeneous Time Resolved Fluorescence (HTRF) assay using crude extracts of ankyrin repeat protein-expressing Escherichia coli cells using standard protocols. Ankyrin repeat protein clones selected by ribosome display were cloned into derivatives of the pQE30 (Qiagen) expression vector (pMPDV045), which contains a C-terminal CD3 binding designed ankyrin repeat protein followed by a Flag tag, transformed into E. coli XL1-Blue (Stratagene), plated on LB-agar (containing 1% glucose and 50 μg/ml ampicillin) and then incubated overnight at 37° C. […]
The extract of each lysed clone was applied as a 1:500 dilution (final concentration) in PBSTB (PBS supplemented with 0.1% Tween 20® and 0.2% (w/v) BSA, pH 7.4) together with 6 nM (final concentration) biotinylated human or cyno CD123, 1:300 (final concentration) of anti-6His-D2 HTRF antibody-FRET acceptor conjugate (Cisbio) and 1:300 (final concentration) of anti-strep-Tb antibody FRET donor conjugate (Cisbio) to a well of 384 well plate and incubated for 120 minutes at RT. The HTRF was read-out on a Tecan M1000 using a 340 nm excitation wavelength and a 665±10 nm emission filter.

B1: DARPin® protein #69 (designed binder)
chain: DLGYKLLQAAYDGQDDEVRILLAAGADVNAKDSRGQTPLHYAASIGHLEIVEVLLKAGADVNAKDDHGWTPLHLAAWSGHLEIVEVLLKAGADVNAQDQEGTTPADLAAVQSHEDIAEVLQKAA
notes: CD70-specific domain; screened as crude extract (vector pMPDV25)
For the molecule B1, the binding result in assay [1] was “binds”.

B2: DARPin® protein #64 (designed binder)
chain: DLGWKLLDAAEIGQDDEVRILLAAGADVNAKDKQGITPLHIAAAHGHLEIVEVLLKAGADVNAKDEIGRTPLHLAAFKGHLEIVEVLLKAGADVNAQDIIGETPADLAAVRGHEDIAEVLQKAA
notes: CD123-specific domain; screened as crude extract
With B2, the binding result in assay [2] is listed as “binds”.

B3: DARPin® protein #63 (designed binder)
chain: DLGKKLLQAARAGQLDEVRELLKAGADVNAKDQYGRTPLHLAAIKGHLEIVEVLLKAGADVNAKDSLGYTPLHLAAVEGPLEIVEVLLKAGADVNAKDAYGQTPLHIAAAWGHLEIVEVLLKAVADVNAQDKSGKTPADLAARAGHQDIAEVLQKAA
notes: as for B2
With B3, the binding result in assay [2] is on record as “binds”.

B4: DARPin® protein #68 (designed binder)
chain: DLGKKLLQAARAGQLDEVRELLKAGADVNAKDQAGLTPLHIAAATGHLEIVEVLLKAGADVNAKDFSGLTPLHLAAFEGHLEIVEVLLKAGADVNAKDQHGQTPLHLAAWTGHLEIVEVLLKAGADVNAQDKSGKTPADLAARAGHQDIAEVLQKAA
notes: as for B1
For the molecule B4, the binding result in assay [1] was “binds”.
